Read-outs that look alike come from different tables or passages of the source.

Holding throughout (assay): fluorescence polarization
For orientation: Fluorescence polarisation rises when a labelled molecule tumbles more slowly, as on binding a larger partner.

Data set [1] has as its target T1, Csm2;Psy3;Shu1;Shu2 (Saccharomyces cerevisiae?;Saccharomyces …, UniProt P40465;Q12318;P38751;P38957 1-213;1-242;1-150;1-223, |||).
T1 sequence 1: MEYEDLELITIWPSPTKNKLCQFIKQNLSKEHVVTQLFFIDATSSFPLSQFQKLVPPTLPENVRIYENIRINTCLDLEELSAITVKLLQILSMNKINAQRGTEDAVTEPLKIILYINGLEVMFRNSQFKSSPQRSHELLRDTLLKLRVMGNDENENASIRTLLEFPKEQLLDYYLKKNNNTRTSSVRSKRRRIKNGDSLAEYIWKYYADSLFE
T1 sequence 2: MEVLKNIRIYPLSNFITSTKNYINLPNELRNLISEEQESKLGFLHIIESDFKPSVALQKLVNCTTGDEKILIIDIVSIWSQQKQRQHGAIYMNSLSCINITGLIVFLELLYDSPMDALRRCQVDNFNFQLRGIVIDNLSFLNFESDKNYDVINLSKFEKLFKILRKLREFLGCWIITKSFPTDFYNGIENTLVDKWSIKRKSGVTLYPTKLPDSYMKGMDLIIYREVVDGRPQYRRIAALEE
T1 sequence 3: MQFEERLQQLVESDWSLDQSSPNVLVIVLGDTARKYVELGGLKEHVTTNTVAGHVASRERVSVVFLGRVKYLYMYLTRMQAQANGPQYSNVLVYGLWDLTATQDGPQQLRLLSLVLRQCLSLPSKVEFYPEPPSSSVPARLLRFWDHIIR
T1 sequence 4: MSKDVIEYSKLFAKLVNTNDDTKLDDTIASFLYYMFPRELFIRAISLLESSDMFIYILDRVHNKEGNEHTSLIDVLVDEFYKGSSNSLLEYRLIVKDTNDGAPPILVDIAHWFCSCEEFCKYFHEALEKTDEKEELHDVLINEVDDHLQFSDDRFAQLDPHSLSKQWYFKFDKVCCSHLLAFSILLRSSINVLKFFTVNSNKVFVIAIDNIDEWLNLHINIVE

The target in data set [2] is T1, Csm2;Psy3;Shu1;Shu2. This is another data set of the same source.
Data set [3] deals with T1, Csm2;Psy3;Shu1;Shu2. The source holds these as a separate data set.
For data set [4], the target named is T1, Csm2;Psy3;Shu1;Shu2. This is another data set of the same source.
The target in data set [5] is T2, Csm2;Psy3 (Saccharomyces cerevisiae?;Saccharomyces …, UniProt P40465;Q12318 1-213;1-242, |).
T2 sequence 1: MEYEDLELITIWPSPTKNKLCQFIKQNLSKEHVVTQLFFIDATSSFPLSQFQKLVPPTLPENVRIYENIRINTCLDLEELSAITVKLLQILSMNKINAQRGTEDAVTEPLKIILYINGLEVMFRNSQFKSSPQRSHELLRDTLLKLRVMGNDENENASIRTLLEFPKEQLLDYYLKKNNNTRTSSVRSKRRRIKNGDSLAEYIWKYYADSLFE
T2 sequence 2: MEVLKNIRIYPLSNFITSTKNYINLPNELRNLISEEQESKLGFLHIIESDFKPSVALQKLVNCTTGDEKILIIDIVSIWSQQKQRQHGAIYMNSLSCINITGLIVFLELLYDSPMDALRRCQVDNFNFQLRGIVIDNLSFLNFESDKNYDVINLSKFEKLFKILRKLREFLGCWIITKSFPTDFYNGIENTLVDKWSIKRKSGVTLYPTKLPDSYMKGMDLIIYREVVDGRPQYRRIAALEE

For data set [6], the target named is T2, Csm2;Psy3. This is another data set of the same source.
Data set [7] deals with T2, Csm2;Psy3. This is another data set of the same source.
Data set [8] addresses T2, Csm2;Psy3. The source holds these as a separate data set.
For data set [9], the target named is T1, Csm2;Psy3;Shu1;Shu2. This is another data set of the same source.

B1: 3'-overhang (5nt) (dsDNA)
DNA 1: ACTGCCCTTACAGCACAGCGGTTTTT
DNA 2: CCGCTGTGCTGTAAGGGCAGT
Molecule B1 had a Kd in the data set with Csm2;Psy3;Shu1;Shu2 [1] of 4860 ± 280 nM.

With ACTTACAGCACAGCGGTTTTT (ssDNA) [ss21], the Kd in the data set with Csm2;Psy3;Shu1;Shu2 [1] was 3430 ± 160 nM.

B2: Fork (10nt) (dsDNA)
DNA 1: ACTGCCCTTACAGCACAGCGGTTTTTTTTTT
DNA 2: TTTTTTTTTTCCGCTGTGCTGTAAGGGCAGT
For the molecule B2, binding in the data set with Csm2;Psy3;Shu1;Shu2 [1] was characterised by a dissociation constant (Kd) of 5840 ± 320 nM.

ACTGCCCTTACAGCACAGCGGTTTTTTTTTT (ssDNA) [ss31] showed a Kd in the data set with Csm2;Psy3;Shu1;Shu2 [1] of 3310 ± 70 nM.

B3: 3'-overhang (10nt) (dsDNA)
DNA 1: ACTGCCCTTACAGCACAGCGGTTTTTTTTTT
DNA 2: CCGCTGTGCTGTAAGGGCAGT
In the data set with Csm2;Psy3;Shu1;Shu2 [1], B3 had a Kd of 4500 ± 120 nM.

B4: Fork (5nt) (dsDNA)
DNA 1: ACTGCCCTTACAGCACAGCGGTTTTT
DNA 2: TTTTTCCGCTGTGCTGTAAGGGCAGT
The molecule B4 registered a Kd with Csm2;Psy3;Shu1;Shu2 [1] of 4080 ± 190 nM. This Kd and that of the molecule before are within 1.5-fold of each other.

B5: ds21 (dsDNA)
DNA 1: ACTTACAGCACAGCGGTTTTT
DNA 2: AAAAACCGCTGTGCTGTAAGT
B5: the affinity in the data set with Csm2;Psy3;Shu1;Shu2 [1], expressed as Kd, was 6210 ± 190 nM.

B6: ss60 (ssDNA)
DNA: TTTTTTTTTTTTTTTTTTTTTTTTTTTTTTCTTGACAAGCTTGCGCACTTAGGCCTCTAG
For B6, the Kd stood at 2370 ± 130 nM in the data set with Csm2;Psy3;Shu1;Shu2 [1], 2370 ± 290 nM in the data set with Csm2;Psy3;Shu1;Shu2 [2], 2400 ± 230 nM with Csm2;Psy3;Shu1;Shu2 [3] and 2010 ± 260 nM in the data set with Csm2;Psy3;Shu1;Shu2 [4].

B7: Fork (20nt) (dsDNA)
DNA 1: TTTTTTTTTTTTTTTTTTTTCTTGACAAGCTTGCGCACT
DNA 2: AGTGCGCAAGCTTGTCAAGGCACTTTTTTTTTTTTTTTT
For the molecule B7, the Kd in the data set with Csm2;Psy3;Shu1;Shu2 [1] stood at 2060 ± 130 nM; with Csm2;Psy3 [5] it was 1350 ± 60 nM; with Csm2;Psy3;Shu1;Shu2 [2], 1030 ± 120 nM; in the data set with Csm2;Psy3 [6] it was 750 ± 70 nM; in the data set with Csm2;Psy3;Shu1;Shu2 [3], 860 ± 70 nM; with Csm2;Psy3 [7], 740 ± 50 nM. In addition, the Kd with Csm2;Psy3;Shu1;Shu2 [4] was determined as 970 ± 100 nM; with Csm2;Psy3 [8], 780 ± 50 nM.

B8: 3'-overhang (20nt) (dsDNA)
DNA 1: CTTGACAAGCTTGCGCACT
DNA 2: AGTGCGCAAGCTTGTCAAGGCACTTTTTTTTTTTTTTTT
As for B8, the Kd in the data set with Csm2;Psy3;Shu1;Shu2 [1] was 2820 ± 190 nM; in the data set with Csm2;Psy3 [5], 1920 ± 280 nM; with Csm2;Psy3 [6], 1270 ± 120 nM; with Csm2;Psy3;Shu1;Shu2 [3] it was 2530 ± 170 nM; in the data set with Csm2;Psy3 [7], 1600 ± 130 nM; with Csm2;Psy3;Shu1;Shu2 [4], 2710 ± 220 nM. Moreover, in the data set with Csm2;Psy3 [8], the Kd was found to be 680 ± 50 nM.

With TTTTTTTTTTTTTTTTTTTTCTTGACAAGCTTGCGCACT (ssDNA) [ss39], the Kd in the data set with Csm2;Psy3;Shu1;Shu2 [1] was 2760 ± 80 nM; with Csm2;Psy3 [5] it was 1650 ± 180 nM; with Csm2;Psy3;Shu1;Shu2 [2], 2770 ± 250 nM; with Csm2;Psy3 [6], 1320 ± 120 nM; with Csm2;Psy3;Shu1;Shu2 [3], 3190 ± 270 nM; with Csm2;Psy3 [7] it was 1490 ± 180 nM. Moreover, the Kd with Csm2;Psy3;Shu1;Shu2 [4] was determined as 2370 ± 220 nM; with Csm2;Psy3 [8], 1980 ± 200 nM.

B9: 5'-overhang (20nt) (dsDNA)
DNA 1: TTTTTTTTTTTTTTTTTTTTCTTGACAAGCTTGCGCACT
DNA 2: AGTGCGCAAGCTTGTCAAG
For B9, the Kd with Csm2;Psy3;Shu1;Shu2 [1] came out at 2440 ± 200 nM; with Csm2;Psy3 [5] it was 1180 ± 100 nM; with Csm2;Psy3;Shu1;Shu2 [2] it was 1150 ± 110 nM; with Csm2;Psy3 [6], 950 ± 120 nM; in the data set with Csm2;Psy3;Shu1;Shu2 [3] it was 1580 ± 160 nM; with Csm2;Psy3 [7] it was 430 ± 70 nM. Moreover, the Kd is 2420 ± 220 nM with Csm2;Psy3;Shu1;Shu2 [4] and 760 ± 90 nM in the data set with Csm2;Psy3 [8].

B10: ds39 (dsDNA)
DNA 1: TTTTTTTTTTTTTTTTTTTTCTTGACAAGCTTGCGCACT
DNA 2: AGTGCGCAAGCTTGTCAAGAAAAAAAAAAAAAAAAAAAA
As to B10, the Kd with Csm2;Psy3;Shu1;Shu2 [9] came to 7400 ± 510 nM; in the data set with Csm2;Psy3 [5], 1490 ± 130 nM; with Csm2;Psy3;Shu1;Shu2 [2], 7410 ± 610 nM; in the data set with Csm2;Psy3 [6], 1450 ± 130 nM; with Csm2;Psy3;Shu1;Shu2 [3], 6850 ± 490 nM; with Csm2;Psy3 [7], 1540 ± 80 nM. Besides, the Kd in the data set with Csm2;Psy3;Shu1;Shu2 [4] was 5800 ± 400 nM; with Csm2;Psy3 [8], 1460 ± 120 nM.

B11: ds26 (dsDNA)
DNA 1: ACTGCCCTTACAGCACAGCGGTTTTT
DNA 2: AAAAACCGCTGTGCTGTAAGGGCAGT
For B11, the affinity with Csm2;Psy3;Shu1;Shu2 [1], expressed as Kd, was 7230 ± 140 nM.

In the case of ACTGCCCTTACAGCACAGCGGTTTTT (ssDNA) [ss26], binding with Csm2;Psy3;Shu1;Shu2 [1] was characterised by a dissociation constant (Kd) of 3540 ± 240 nM.

As usually defined, the Kd is a measure of binding affinity in units of concentration. A higher Kd goes with a looser complex.
